From the supplement of paper PMC10899765
Values joined by “and” are separate entries in the source; they are usually repeats but may differ in a detail not shown here. Identical values can stand only once.

Tests used:
Conditions in all cases: 20 nM; 72 h
[1] = tested on: MCF10A; experiment: one-nucleolus phenotype percent effect (relative to siNT 0% and siNOL11 100%); higher = more cells with one nucleolus (ribosome biogenesis inhibition)
Experimental: (§1)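 After 72 h, cells were fixed and stained with Hoechst and anti-fibrillarin, and nucleoli per nucleus were counted with CellProfiler. Values are plate-adjusted percent effect for the one-nucleolus and 5+ nucleoli phenotypes, normalised to siNT (0%) and to the positive controls siNOL11 or siKIF11 (100%), as the mean of biological triplicates. Percent viability is the nuclei count relative to siNT.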

[2] = tested on: MCF10A; experiment: percent viability (nuclei count relative to siNT); higher = more viable cells
Experimental: as §1

[3] = tested on: MCF10A; experiment: 5+ nucleoli phenotype percent effect (relative to siNT 0% and siKIF11 100%); higher = more cells with five or more nucleoli
Experimental: as §1

Sequence | one-nucleolus phenotype percent effect [1] | percent viability [2] | 5+ nucleoli phenotype percent effect [3]
AAAAACCACAAUUACUUUU [hsa-miR-548ap-3p] | 16.7% | 30.2% | -30.6%
AAAAACCACAAUUACUUUUGCACCA [hsa-miR-548aa] | 51.2% | 16.1% | -30.9%
AAAAACCACAAUUACUUUUGCACCA [hsa-miR-548t-3p] | -19.6% | 157% | 39.3%
AAAAACUGAGACUACUUUUGCA [hsa-miR-548e] | -28.9% | 140% | 40.3%
AAAAACUGCAAUCACUUUUGC [hsa-miR-548az-3p] | -6.63% | 62% | 7.93%
AAAAACUGUAAUUACUUUU [hsa-miR-548f] | -26.8% and -24.7% and -21.2% |  | 53.7% and 60% and 60.4%
AAAACCGUCUAGUUACAGUUGU [hsa-miR-1537] | -11.1% | 73.7% | 13.9%
AAAACGGUGAGAUUUUGUUUU [hsa-miR-553] | -24.2% | 103% | 65.7%
AAAACUAGGACUGUGUGGUGUA [hsa-miR-7844-5p] | 15.8% | 40.6% | -30.8%
AAAACUGCAGUUACUUUUGC [hsa-miR-548av-3p] | -20.6% | 83.1% | 35.1%
AAAACUGUAAUUACUUUUGUAC [hsa-miR-548g-3p] | -25.2% | 165% | 49.3%
AAAAGCACUUUUCUGUCUCCCAG [hsa-miR-6835-3p] | 12.3% | 41.3% | -36%
AAAAGCAUCAGGAAGUACCCA [hsa-miR-4422] | -9.65% | 58.8% | 2.92%
AAAAGCUGGGCUGAGAGGCG [hsa-miR-4429] | 24.9% | 38.6% | -19.2%
AAAAGCUGGGUUGAGAGGA [hsa-miR-320d] | 27% and 27.3% | 50.4% and 40.7% | -8.63% and -12.1%
AAAAGCUGGGUUGAGAGGGCAA [hsa-miR-320b] | 8.28% | 59% | -10.2%
AAAAGCUGGGUUGAGAGGGCGA [hsa-miR-320a] | 18.7% | 38.1% | -11.8%
AAAAGCUGGGUUGAGAGGGU [hsa-miR-320c] | 1.49% | 64.7% | -0.437%
AAAAGUAACUAUGGUUUUUGCC [hsa-miR-548bb-5p] | -28.8% | 138% | 30.8%
AAAAGUAACUGCGGUUUUUGA [hsa-miR-548ak] | -23.5% | 89.9% | 45.4%

Sequence | one-nucleolus phenotype percent effect [1] | percent viability [2] | 5+ nucleoli phenotype percent effect [3]
AAAAGUAACUGCGGUUUUUGCCU [hsa-miR-548w] | -28.5% | 77.2% | 56.1%
AAAAGUAAUCACUGUUUUUGCC [hsa-miR-548y] | -21.4% | 73.4% | 42.1%
AAAAGUAAUCGCGGUUUUUGUC [hsa-miR-548h-5p] | -19.1% | 101% | 35.8%
AAAAGUAAUUGCAGUUUUUGC [hsa-miR-548ar-5p] | -24.8% | 134% | 22.8%
AAAAGUAAUUGCGAGUUUUACC [hsa-miR-548a-5p] | -20.8% | 172% | 9.73%
AAAAGUAAUUGCGGAUUUUGCC [hsa-miR-548i] | -17.1% | 140% | 20.3%
AAAAGUAAUUGCGGGUUUUGCC [hsa-miR-548as-5p] | -24.9% | 160% | 35.9%
AAAAGUAAUUGCGGUCUUU [hsa-miR-548ap-5p] | -19% | 121% | 39.1%
AAAAGUAAUUGCGGUCUUUGGU [hsa-miR-548j] | -14.6% | 85.9% | 17%
AAAAGUAAUUGCGGUUUUUGC [hsa-miR-548au-5p] | -19.4% | 100% | 42.7%
AAAAGUAAUUGCGGUUUUUGCC [hsa-miR-548am-5p] | -17.6% | 139% | 39.6%
AAAAGUAAUUGCGGUUUUUGCC [hsa-miR-548c-5p] | -19.1% | 166% | 16.9%
AAAAGUAAUUGCGGUUUUUGCC [hsa-miR-548o-5p] | -26.8% | 119% | 43.1%
AAAAGUAAUUGUGGAUUUUGCU [hsa-miR-548ab] | -19.3% | 67.8% | 30.5%
AAAAGUAAUUGUGGUUUUGGCC [hsa-miR-548b-5p] | -24.3% | 131% | 36.5%
AAAAGUAAUUGUGGUUUUUGC [hsa-miR-548ay-5p] | -28.5% | 134% | 28.7%
AAAAGUAAUUGUGGUUUUUGCC [hsa-miR-548d-5p] | -15.4% | 95.4% | 49.4%
AAAAGUACUUGCGGAUUU [hsa-miR-548av-5p] | -23.4% | 77.9% | 9.21%
AAAAGUACUUGCGGAUUUUGCU [hsa-miR-548k] | -15.1% | 75.4% | 36.4%
AAAAGUAUUUGCGGGUUUUGUC [hsa-miR-548l] | -20.8% | 127% | 30%

Sequence | one-nucleolus phenotype percent effect [1] | percent viability [2] | 5+ nucleoli phenotype percent effect [3]
AAAAGUGAUUGCAGUGUUUG [hsa-miR-548ah-5p] | -15.3% | 114% | 17.4%
AAAAGUGCUUACAGUGCAGGUAG [hsa-miR-106a-5p] | -17.6% | 48.8% | 22.1%
AAAAGUUAUUGCGGUUUUGGCU [hsa-miR-548at-5p] | -14.7% | 54.1% | 15%
AAAAUGAAAUGAGCCCAGCCCA [hsa-miR-3646] | -19.1% | 63.5% | 21.9%
AAAAUGGUGCCCUAGUGACUACA [hsa-miR-224-3p] | 12.8% | 13.9% | -15%
AAAAUGGUUCCCUUUAGAGUGU [hsa-miR-522-3p] | -12.4% | 66.3% | 28.6%
AAAAUUUCUUUCACUACUUAG [hsa-miR-3606-3p] | -25.7% | 54% | 41.5%
AAACAAACAUGGUGCACUUCUU [hsa-miR-495-3p] | 5.47% | 93.6% | -10.6%
AAACACCAUUGUCACACUCCAC [hsa-miR-3591-3p] | 32.5% | 27.5% | -27%
AAACAUUCGCGGUGCACUUCUU [hsa-miR-543] | -1.05% | 37.4% | 0.749%
AAACCGUUACCAUUACUGAGUU [hsa-miR-451a] | -5.64% | 69.8% | 12.9%
AAACCUGUGUUGUUCAAGAGUC [hsa-miR-649] | -16.6% | 113% | 34.7%
AAACUAAUAUACCCAUAUUCUG [hsa-miR-5583-5p] | -23.4% | 115% | 35.5%
AAACUAAUCUCUACACUGCUGC [hsa-miR-3129-3p] | -4.83% | 98.8% | 5.92%
AAACUACUGAAAAUCAAAGAU [hsa-miR-606] | -12.6% | 133% | 18.1%
AAACUCUACUUGUCCUUCUGAGU [hsa-miR-618] | 10.9% | 46.5% | -16.4%
AAAGACAUAGGAUAGAGUCACCUC [hsa-miR-641] | -15.4% | 213% | 1.49%
AAAGACAUAGUUGCAAGAUGGG [hsa-miR-3617-5p] | -28.6% | 188% | 37.2%
AAAGACCCAUUGAGGAGAAGGU [hsa-miR-3667-5p] | 11.5% | 99.1% | -13.6%
GCGGCGAGUCCGACUCAU [hsa-miR-4285] | -17.6% and -20.2% |  | 32.6% and 20.7%
